The target of assay [1] is T1, recombinant human extracellular domain of EGFR fused to an IgG1 Fc (human, UniProt P00533 25-645).
T1 construct: Bought from R&D Systems; The residues are stated for the panning reagent; also called EGFR-Fc; EGF R-Fc; not shown: IgG1 Fc
Put plainly: affinity printed beside the clone name; SPR on EGFR-Fc taken as the method.

Assay [2] concerns the target T1, recombinant human extracellular domain …. The assay can be described thus: SPR (ProteOn), EGFR-Fc captured on anti-human Fc IgG, FN3 domain as analyte. On the procedure:
Select EGFR-binding FN3 domains were screened to identify those with slow off-rates (koff) in binding to EGFR-Fc on a ProteOn XPR-36 instrument (Bio-Rad) to facilitate selection of high affinity binders. Goat anti-human Fc IgG (R&D systems), at a concentration of 5 μg/mL, was directly immobilized via amine coupling (at pH 5.0) on all 6 ligand channels in horizontal orientation on the chip with a flow rate of 30 μL/min in PBS containing 0.005% Tween-20. The immobilization densities averaged about 1500 Response Units (RU) with less than 5% variation among different channels. EGFR-Fc was captured on the anti-human Fc IgG surface to a density around 600 RU in vertical ligand orientation. All tested FN3 domains were normalized to a concentration of […] and tested for their binding in horizontal orientation. All 6 analyte channels were used for the FN3 domains to maximize screening throughput. The dissociation phase was monitored for 10 minutes at a flow rate of 100 μL/min. The inter-spot binding signals were used as references to monitor non-specific binding between analytes and the immobilized IgG surface, and were subtracted from all binding responses. The processed binding data were locally fit to a 1:1 simple Langmuir binding model to extract the koff for each FN3 domain binding to captured EGFR-Fc.
Binding affinity of selected EGFR-binding FN3 domains to recombinant EGFR extracellular domain was further characterized by surface Plasmon resonance methods using a Proteon Instrument (BioRad). The assay set-up (chip preparation, EGFR-Fc capture) was similar to that described above for off-rate analysis. Selected EGFR binding FN3 domains were tested at 1 μM concentration in 3-fold dilution series in the horizontal orientation. A buffer sample was also injected to monitor the baseline stability.

The target of assay [3] is T2, human EGFR on cells (human, UniProt P00533 25-1210). Put plainly: cell-based or functional assay.
Assay [4] deals with T2, human EGFR on cells. The assay can be described thus: A431 cell EGF competition assay, competitor biotinylated EGF; A431 cell EGF competition assay: displaces EGF from EGFR on A431 cells.
Assay [5] addresses human c-Met extracellular domain (human, UniProt P08581 16-932). Put plainly: MSD plate competition assay, competitor biotinylated HGF at 10 nM. As for the experimental part: MSD Blocker A buffer (Meso Scale Discovery, Gaithersburg, Md.) was added to each well and incubated for 2 hr at room temperature. […] After 2-hour incubation with gentle shaking at room temperature, the plates were washed 3 times with 0.1M HEPES buffer (pH 7.4). MSD Read Buffer T was diluted and dispensed and the signals were analyzed with a SECTOR Imager 6000.

Assay [6] deals with T3, human c-Met on cells (human, UniProt P08581 25-1390).
T3 construct: c-Met on NCI-H441, NCI-H292, NCI-H1975 and U87-MG cells; in U-2 OS cells a beta-galactosidase fragment was fused to its C-terminus; also called hepatocyte growth factor receptor
The assay can be described thus: H441 cell binding assay (assay for c-Met binding). On the procedure:
Purified FN3 domains (50 μL/well; 0 to 1000 nM) were added to the cells for 1 hour at 4° C. in duplicate plates. […] Cells were incubated with biotinylated-anti HIS antibody (diluted 1:160 in FACS stain buffer, 50 μL/well, R&D Systems, cat #BAM050) for 30 minutes at 4° C. […] Cells were washed three times with FACS stain buffer (150 μL/well) and left in FACS stain buffer (50 μL/well).

Assay [7] has as its target T3, human c-Met on cells. The assay can be described thus: cell-based or functional assay.
In assay [8] the target is T2, human EGFR on cells. The assay can be described thus: A431 cell binding assay (assay for EGFR binding).

The term Kd denotes the free concentration of one partner at which half of the binding sites on the other are occupied at equilibrium, for simple one-to-one binding. The IC50 is the concentration needed to halve the response being measured. Higher therefore signals weaker potency. The EC50 is the concentration giving half of the maximal effect.

B1: P53A1R5-17v2 (designed binder, not shown: small tags and cut ends)
chain: LPAPKNLVVSEVTEDSARLSWADPHGFYDSFLIQYQESEKVGEAIVLTVPGSERSYDLTGLKPGTEYTVSIYGVHNVYKDTNMRGLPLSAIFTT
In the case of B1, the dissociation constant (Kd) in assay [1] was determined as 1.9 nM.

B2: P54CR4-31 (designed binder, not shown: small tags and cut ends)
chain: LPAPKNLVVSEVTEDSLRLSWTAPDAAFDSFLIQYQESEKVGEAINLTVPGSERSYDLTGLKPGTEYTVSIYGVLGSYVFEHDVMLPLSAEFTT
For B2, the dissociation constant Kd in assay [2] turned out to be 0.383 nM. Moreover, in assay [3], the “NCI-H292 Growth IC50” value amounted to 1150 nM, the “NCI-H322 Growth IC50” value is above 3070 nM and the “Phospho-EGFR IC50 (A431 cells)” value was 179 nM. The same molecule returned an IC50 in assay [4] of 55 nM.

B3: parental bivalent anti-c-Met antibody M1-K409R (antibody, human IgG1, kappa, V domains shown)
VH: QVQLVQSGAEVKKPGASVKVSCETSGYTFTSYGISWVRQAPGHGLEWMGWISAYNGYTNYAQKLQGRVTMTTDTSTSTAYMELRSLRSDDTAVYYCARDLRGTNYFDYWGQGTLVTVSS
VL: DIQMTQSPSSVSASVGDRVTITCRASQGISNWLAWFQHKPGKAPKLLIYAASSLLSGVPSRFSGSGSGTDFTLTISSLQPEDFATYYCQQANSFPITFGQGTRLEIKR
notes: also called parental bivalent antibody; Parental mAbs
B3 registered an IC50 in assay [5] of 14.8 nM. It took 0.65 nM to reach a half-maximal effect in assay [6] (EC50).

B4: control monovalent anti-cMet mAb M1-K409R-gp120-F405L (bispecific antibody, human IgG1, kappa)
heavy 1: not shown
light 1: DIQMTQSPSSVSASVGDRVTITCRASQGISNWLAWFQHKPGKAPKLLIYAASSLLSGVPSRFSGSGSGTDFTLTISSLQPEDFATYYCQQANSFPITFGQGTRLEIKRTVAAPSVFIFPPSDEQLKSGTASVVCLLNNFYPREAKVQWKVDNALQSGNSQESVTEQDSKDSTYSLSSTLTLSKADYEKHKVYACEVTHQGLSSPVTKSFNRGEC
heavy 2: not shown
light 2: EIVLTQSPGTLSLSPGERATFSCRSSHSIRSRRVAWYQHKPGQAPRLVIHGVSNRASGISDRFSGSGSGTDFTLTITRVEPEDFALYYCQVYGASSYTFGQGTKLERKRTVAAPSVFIFPPSDEQLKSGTASVVCLLNNFYPREAKVQWKVDNALQSGNSQESVTEQDSKDSTYSLSSTLTLSKADYEKHKVYACEVTHQGLSSPVTKSFNRGEC
notes: also called M1-K409R-120-F405L
Regarding B4, the “inhibition of ligand-induced c-Met phosphorylation in H292 cells (IC50)” value in assay [7] was 4.05 nM. For the same molecule, the EC50 in assay [6] was 1 nM.

B5: control monovalent anti-EGFR mAb E1-F405L-gp120-K409R (bispecific antibody, human IgG1, kappa)
heavy 1: not shown
light 1: not shown
heavy 2: not shown
light 2: B4 light 2
notes: also called E1-F405L-120-K409R
B5: a half-maximal response in assay [8] (EC50) required 10.1 nM.

The values are drawn from patent US20140255408A1 (Janssen / Centocor, published 2014).
